Measurements taken from patent US6500927B2 (priority 1998, dated 2002).

Legend:
[1] = target: MOR-1C splice variant of the mu-opioid receptor-1 (mouse); experiment: competition with ^3H-DAMGO, CHO cell membranes
[2] = target: MOR-1D splice variant of the mu-opioid receptor-1 (mouse) (UniProt P42866); experiment: competition with ^3H-DAMGO, CHO cell membranes
[3] = target: MOR-1E splice variant of the mu-opioid receptor-1 (mouse) (UniProt P42866); experiment: competition with ^3H-DAMGO, CHO cell membranes
[4] = target: MOR-1 (mu-opioid receptor-1, full length) (mouse) (UniProt P42866); experiment: competition with ^3H-DAMGO, CHO cell membranes
[5] = target: T1, MOR-1D (Mus musculus, UniProt P42866); assay type: binding; conditions: MOR-1D vs MOR-1, p<0.05
T1 construct: The cDNA fragments containing the full length MOR-1 or the MOR-1 variants in pCRII-ToPo were subcloned into pcDNA3.1; expressed in transfected cells

[6] = target: MOR-1C splice variant of the mu-opioid receptor-1 (mouse); experiment: saturation radioligand binding, membranes of stably transfected CHO cells
[7] = target: MOR-1D splice variant of the mu-opioid receptor-1 (mouse) (UniProt P42866); experiment: as above
[8] = target: MOR-1E splice variant of the mu-opioid receptor-1 (mouse) (UniProt P42866); experiment: as above
[9] = target: MOR-1 (mu-opioid receptor-1, full length) (mouse) (UniProt P42866); experiment: as above
[10] = target: T2, MOR-1E (Mus musculus, UniProt P42866); assay type: binding; conditions: MOR-1E vs MOR-1
T2 construct: The cDNA fragments containing the full length MOR-1 or the MOR-1 variants in pCRII-ToPo were subcloned into pcDNA3.1; expressed in transfected cells

Substance | Ki [1] [nM] | Ki [2] [nM] | Ki [3] [nM] | Ki [4] [nM] | also measured
DADLE (peptide) | 3.2 | 1.3 | 2.5 | 2.1 | 
[D-Ser^2, Leu^5]enkephalin-Thr^6 [DSLET] |  |  |  |  | Potency against binding to MOR-1D relative to MOR-1 (in words) [5]: twice as potent
[D-Ala^2, MePhe^4, Gly(ol)^5]enkephalin (DAMGO) (peptide) | 0.93 | 0.71 | 1.2 | 1.8 | Kd [6]: 0.93 nM; Kd [7]: 0.72 nM; Kd [8]: 1.2 nM; Kd [9]: 1.75 nM
[D-Ser^2, Leu^5]enkephalin-Thr^6 (DSLET) (peptide) |  |  |  |  | fold potency against MOR-1 [2]: 2 fold
β-endorphin: endogenous opioid peptide |  |  |  |  | Affinity of MOR-1E compared with MOR-1 [10]: significantly higher affinity
